Here are results for two substances from article PMC9733695.

This assay deals with human FcRn (neonatal Fc receptor), coupled to a Sepharose affinity column (human) (UniProt P55899). The assay can be described thus: FcRn affinity chromatography.
UniProt P55899, sequence (P55899 whole entry, looked up, tested part not stated): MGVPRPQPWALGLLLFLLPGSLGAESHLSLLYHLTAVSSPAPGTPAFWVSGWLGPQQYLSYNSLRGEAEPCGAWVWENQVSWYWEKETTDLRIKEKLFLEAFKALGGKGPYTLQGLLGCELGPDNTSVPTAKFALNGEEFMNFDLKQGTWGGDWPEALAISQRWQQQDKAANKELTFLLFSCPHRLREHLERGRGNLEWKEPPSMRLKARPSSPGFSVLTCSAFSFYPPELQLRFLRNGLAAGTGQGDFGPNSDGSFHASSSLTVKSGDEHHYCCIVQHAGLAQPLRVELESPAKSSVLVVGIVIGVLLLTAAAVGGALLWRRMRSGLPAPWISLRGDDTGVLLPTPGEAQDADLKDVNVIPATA

Consider “Antibody 4 TM (human IgG1 Fc with the TM modification)”, for which the retention time on the FcRn affinity column worked out at 15.9 min.

The substance Antibody 4 WT (wild-type human IgG1 Fc) showed a retention time on the FcRn affinity column of 16.3 min.
